The record followed here is patent publication US20060257383A1.

The target in this assay is active MMP-2 (Calbiochem) (UniProt P08253). Put plainly: cell-based or functional assay.
Chain of UniProt P08253 (P08253 110-660 limits assumed): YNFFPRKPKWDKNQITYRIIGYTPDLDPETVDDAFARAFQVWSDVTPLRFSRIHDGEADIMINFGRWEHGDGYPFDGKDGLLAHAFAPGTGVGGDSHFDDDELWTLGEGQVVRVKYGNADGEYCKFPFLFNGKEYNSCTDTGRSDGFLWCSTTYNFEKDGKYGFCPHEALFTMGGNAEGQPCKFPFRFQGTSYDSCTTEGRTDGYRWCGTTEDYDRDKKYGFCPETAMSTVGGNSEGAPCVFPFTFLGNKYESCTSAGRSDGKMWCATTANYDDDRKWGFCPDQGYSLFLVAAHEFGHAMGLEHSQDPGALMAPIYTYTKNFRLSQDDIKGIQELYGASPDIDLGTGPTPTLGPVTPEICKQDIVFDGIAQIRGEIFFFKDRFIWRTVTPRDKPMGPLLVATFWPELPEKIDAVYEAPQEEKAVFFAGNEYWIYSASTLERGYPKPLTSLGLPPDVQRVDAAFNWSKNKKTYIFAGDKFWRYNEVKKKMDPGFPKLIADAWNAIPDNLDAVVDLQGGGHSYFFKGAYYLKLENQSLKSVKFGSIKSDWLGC

Turning to “TIMP-1-HA (exogenous human TIMP-1 with a C-terminal HA epitope tag, secreted by stable NIKS clone INV TIMP-1-HA:28) (from UniProt P01033 24-207)”, the inhibition in MMP-2 protease activity compared to untransfected NIKS (EnzChek Gelatinase/Collagenase Assay, DQ gelatin) was below 40%.
